Reference: paper PMC2114742

Molecular target: Turkey gizzard myosin, dephosphorylated (turkey)
Experiment: electron microscopy with streptavidin-gold labelling

- percent of the filaments that contained gold particles after 24 h: > 95%
Substance: Turkey gizzard myosin biotinylated with NHS-LC-biotin (complex)
